# In US20240158497A1 (published 2024):
# T1: human gp130 extracellular domain (E23-E619) with C-terminal mouse IgG2a Fc (human)
# T1 construct: dimeric; also called hGP130-mFc; human GP130-mFc
# T1 chain: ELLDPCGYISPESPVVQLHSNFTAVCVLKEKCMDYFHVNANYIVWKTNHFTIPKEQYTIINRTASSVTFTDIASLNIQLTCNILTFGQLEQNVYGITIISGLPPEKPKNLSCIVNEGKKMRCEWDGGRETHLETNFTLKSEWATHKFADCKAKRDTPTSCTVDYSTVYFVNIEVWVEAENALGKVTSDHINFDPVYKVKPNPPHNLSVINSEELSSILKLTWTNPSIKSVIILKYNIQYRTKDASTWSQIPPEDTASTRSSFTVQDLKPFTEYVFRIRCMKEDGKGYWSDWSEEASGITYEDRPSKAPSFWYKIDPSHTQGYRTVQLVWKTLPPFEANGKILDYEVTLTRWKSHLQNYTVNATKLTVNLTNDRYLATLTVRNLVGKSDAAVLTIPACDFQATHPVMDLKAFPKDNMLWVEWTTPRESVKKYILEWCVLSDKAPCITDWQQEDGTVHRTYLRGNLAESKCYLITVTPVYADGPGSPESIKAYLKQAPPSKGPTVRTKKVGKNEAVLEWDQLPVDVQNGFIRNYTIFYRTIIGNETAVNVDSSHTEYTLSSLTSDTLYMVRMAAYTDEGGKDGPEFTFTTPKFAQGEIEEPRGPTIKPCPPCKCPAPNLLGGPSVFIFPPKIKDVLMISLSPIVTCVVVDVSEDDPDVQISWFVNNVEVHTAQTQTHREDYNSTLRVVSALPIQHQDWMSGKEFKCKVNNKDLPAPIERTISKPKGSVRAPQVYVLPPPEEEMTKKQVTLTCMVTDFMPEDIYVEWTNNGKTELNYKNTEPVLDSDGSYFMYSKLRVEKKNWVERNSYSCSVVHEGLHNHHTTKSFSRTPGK
# B1: MAb16636 (antibody, V domains shown)
# VH: QLQLQESGPGLVKPSETLSLICTVSGGSISSNNYYWGWIRQPPGKGLEWIGNLYGSGSTYYNPSLKSRVTISVDTSKNQFSLKLSFVTAADTAVYHCARWDTNGGAFDIWGQGTMVTVSS
# VL: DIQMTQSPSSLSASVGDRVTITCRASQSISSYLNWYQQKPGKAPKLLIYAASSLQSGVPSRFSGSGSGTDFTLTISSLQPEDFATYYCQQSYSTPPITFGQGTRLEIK
# notes: hIgG4 isotype control used
# B2: MAb16623 (antibody, V domains shown)
# VH: EVQLVESGGGLVQPGGSLRLSCAASGLTFSSYEMNWVRQAPGKGLEWVSHISSAGSTKYYADSVKGRFTISRDNAKNSLFLQMNSLRAEDTAIYYCAGYNYAYYYFGVDVWGQGTTVTVSS
# VL: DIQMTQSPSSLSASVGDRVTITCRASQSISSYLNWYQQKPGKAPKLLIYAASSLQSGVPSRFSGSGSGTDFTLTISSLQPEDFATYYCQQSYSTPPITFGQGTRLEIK
# notes: hIgG4 isotype control used
# B3: MAb16666 (antibody, V domains shown)
# VH: EVQLVESGGGLVQSGGSLRLSCAASGFTFSRYEMNWVRQAPGKGLEWVAYISNTGTTRDYSDSVKGRFTISRDNAKNSLYLQMSSLRVEDTAVYYCVREKFSGTSDWFDPWGQGTLVTVSS
# VL: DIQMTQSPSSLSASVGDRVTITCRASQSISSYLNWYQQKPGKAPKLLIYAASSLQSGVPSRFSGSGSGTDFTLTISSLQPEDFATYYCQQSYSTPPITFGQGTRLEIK
# notes: hIgG4 isotype control used
# B4: MAb16682 (antibody, V domains shown)
# VH: EVQLVESGGGLVQPGGSLRLSCAASGFTFSTYWMNWVRQAPGKGLEWVANIKEDGSEKYYVDSVKGRFTISRDNAKNSLYLQMNSLRAEDTAVYYCAREGFGVVTYIWGQGTMVTVSS
# VL: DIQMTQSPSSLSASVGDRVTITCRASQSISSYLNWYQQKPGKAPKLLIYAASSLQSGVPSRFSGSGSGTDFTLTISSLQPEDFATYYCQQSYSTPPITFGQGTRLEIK
# notes: hIgG4 isotype control used
# B5: MAb16659 (antibody, V domains shown)
# VH: QVQLVQSGPEVKKPGSSVKVSCKASGGTIDRNEITWVRQAPGQGLEWMGVIIPILGEAHYERKFQGRLTITMDESTSTAYMELSNLRSEDTAVYYCARERAARGYLDYWGQGTLVTVSS
# VL: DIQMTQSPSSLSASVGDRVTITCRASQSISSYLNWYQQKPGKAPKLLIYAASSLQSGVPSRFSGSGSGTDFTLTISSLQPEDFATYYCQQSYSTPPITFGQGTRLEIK
# notes: hIgG4 isotype control used
# B6: MAb16656 (antibody, V domains shown)
# VH: EVQLVESGGGLVQPGRSLRLSCAASGFTLDDFAMHWVRQAPGKGLEWVSGISWNSGNIGYADSVKGRFTISRDNARNSLYLQMNSLRAEDTALYYCTSGYYLYYAMDVWGQGTTVTVSS
# VL: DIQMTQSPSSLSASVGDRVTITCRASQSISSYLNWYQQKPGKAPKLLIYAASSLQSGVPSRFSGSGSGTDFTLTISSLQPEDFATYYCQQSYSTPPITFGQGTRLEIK
# notes: hIgG4 isotype control used
# B7: MAb16673 (antibody, V domains shown)
# VH: EVQLVQSGAEVKKPGESLKISCKGSGYSFTSYWIDWVRQMPGKGLEWMGIIYPDDSDTRYSPSFQGQVTMSVDKSISTAYLQWSSLKASDTAIYYCARHERGIVEAGTDYYYYYGMDVWGQGTTVTVSS
# VL: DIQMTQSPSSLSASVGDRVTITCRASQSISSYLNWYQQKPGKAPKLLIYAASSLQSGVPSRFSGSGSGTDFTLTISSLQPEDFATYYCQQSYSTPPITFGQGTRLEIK
# notes: hIgG4 isotype control used
# B8: MAb16618 (antibody, V domains shown)
# VH: QVQLQESGPGLVKPSETLSLTCTVSGGSISNYYWTWIRQPPGKGLEWIGHISNSGTTNYNPSLKSRVTISVDTSKNQFSLKLTSVTAADTAVYYCARLPLGIAAVDTDYYYYFGMDVWGQGTTVTVSS
# VL: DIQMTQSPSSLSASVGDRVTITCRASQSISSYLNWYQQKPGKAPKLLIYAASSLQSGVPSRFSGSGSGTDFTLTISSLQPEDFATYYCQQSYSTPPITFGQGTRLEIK
# notes: hIgG4 isotype control used
# B9: MAb16622 (antibody, V domains shown)
# VH: EVQLVESGGGVVRPGGSLRLSCTASGFTFDDYGMSWVRQAPGKGLEWVSGINWNGGRTEYADAVKGRFIISRDNAKNSLYLQMNSLRAEDTALYFCARTELRWDYWGQGTLVTVSS
# VL: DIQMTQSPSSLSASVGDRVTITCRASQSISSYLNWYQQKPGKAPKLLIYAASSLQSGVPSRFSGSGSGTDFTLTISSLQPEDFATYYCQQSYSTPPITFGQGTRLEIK
# notes: hIgG4 isotype control used
# B10: MAb16637 (antibody, V domains shown)
# VH: QVQLVQSGAEVKKPGASVKVSCKASGYTFTSLGISWVRQAPGQGLEWMGWISAYSGNRDYAQKFQGRVTMTTDTSTSTAYMELRSLRSDDTAVYYCARSLRFDYWGQGTLVTVSS
# VL: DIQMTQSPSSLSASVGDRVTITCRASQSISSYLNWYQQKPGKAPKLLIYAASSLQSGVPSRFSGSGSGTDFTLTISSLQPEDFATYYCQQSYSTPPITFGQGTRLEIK
# notes: hIgG4 isotype control used
# Biological target: T2, human GP130 delta D1-D3 with C-terminal myc-myc hexahistidine tag (human, UniProt P40189 329-619)
# T2 construct: used as CHO supernatant; also called human GP130 delta D1-D3-MMH; GP130 Delta D1-D3 extracellular domain
# Assay: Luminex, antigen captured on anti-myc beads
# Method: (§1) Aliquots of microspheres with immobilized anti-myc monoclonal antibodies, prepared as described above, were added individually to 1 mL of the each of these protein supernatants and to 500 uL of purified GP130 protein. The microspheres were gently mixed, incubated for two hours at 25° C., washed twice with 1 mL of DBPS, centrifuged to remove the supernatant and finally resuspended in 1 mL of DPBS buffer. Forty eight μL of anti-myc IgG coupled microspheres from individual reactions with full length human GP130 and with each of the human GP130 domain proteins were withdrawn and mixed together in 3.6 mL of PBS+20 mg/mL BSA+0.05% sodium azide (blocking buffer).
# (§2) From this mixed pool, 75 μL of microspheres were plated per well on a 96 well filter plate (Millipore, Cat. No: MSBVN1250) and mixed with 25 μL of individual anti-human GP130 monoclonal antibodies (0.5 or 5 μg/mL), incubated for two hours at 25° C. and then washed twice with 200 μL of DPBS with 0.05% Tween 20 (washing buffer). To detect and quantify the amounts of bound anti-GP130 antibody levels to individual microspheres, either 100 μL of 2.5 μg/mL R-Phycoerythrin conjugated goat F(ab′)2 anti-human kappa (Southern Biotech, Cat #2063-09) in blocking buffer, was added and incubated for 30 minutes at 25° C. After 30 minutes, the samples were washed twice with 200 μL of washing buffer and resuspended in 150 μL of wash buffer. The Median Fluorescence intensity (MFI) of the microspheres was measured in a Luminex Analyzer.
# T2 sequence (P40189 other isoform, or with tags, fused parts or gaps mutant limits assumed): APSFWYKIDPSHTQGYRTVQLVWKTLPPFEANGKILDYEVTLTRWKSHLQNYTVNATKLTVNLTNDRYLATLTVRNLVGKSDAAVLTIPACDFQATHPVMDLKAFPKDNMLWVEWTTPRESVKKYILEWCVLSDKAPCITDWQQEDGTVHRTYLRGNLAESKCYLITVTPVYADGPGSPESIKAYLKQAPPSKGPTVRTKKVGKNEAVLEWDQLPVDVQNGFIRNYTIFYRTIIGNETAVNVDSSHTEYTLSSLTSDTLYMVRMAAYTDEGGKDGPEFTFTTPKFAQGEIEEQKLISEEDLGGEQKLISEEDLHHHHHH
row,Luminex MFI signal [MFI],Binder
1,1070,B1
2,16000,B2
3,319,B3
4,13,B4
5,22,B5
6,17,B6
7,33,B7
8,19,B8
9,20,B9
10,861,B10

# Biological target: T3, human GP130 delta D1 with C-terminal myc-myc hexahistidine tag (human, UniProt P40189 124-619)
# T3 construct: used as CHO supernatant; also called human GP130 delta D1-MMH; GP130 Delta D1 extracellular domain
# Assay: Luminex, antigen captured on anti-myc beads
# Method: as §1, §2
# T3 sequence (P40189 other isoform, or with tags, fused parts or gaps mutant limits assumed): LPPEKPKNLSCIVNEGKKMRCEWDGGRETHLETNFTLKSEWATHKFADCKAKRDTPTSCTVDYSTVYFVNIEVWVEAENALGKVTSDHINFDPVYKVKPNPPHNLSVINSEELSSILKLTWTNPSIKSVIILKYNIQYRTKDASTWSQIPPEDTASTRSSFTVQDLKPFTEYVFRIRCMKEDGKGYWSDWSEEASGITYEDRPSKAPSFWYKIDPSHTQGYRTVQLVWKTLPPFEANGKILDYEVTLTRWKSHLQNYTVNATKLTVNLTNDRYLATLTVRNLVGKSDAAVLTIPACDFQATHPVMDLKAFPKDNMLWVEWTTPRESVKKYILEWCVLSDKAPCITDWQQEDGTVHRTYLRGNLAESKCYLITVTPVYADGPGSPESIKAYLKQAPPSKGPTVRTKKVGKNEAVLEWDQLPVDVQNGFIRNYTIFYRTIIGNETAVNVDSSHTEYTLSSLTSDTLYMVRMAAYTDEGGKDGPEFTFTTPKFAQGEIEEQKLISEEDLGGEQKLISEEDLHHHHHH
row,Luminex MFI signal [MFI],Binder
1,4260,B1
2,12600,B2
3,7280,B3
4,1380,B4
5,49,B5
6,48,B6
7,2340,B7
8,2630,B8
9,391,B9
10,342,B10

# Biological target: T4, human GP130 full length extracellular domain with C-terminal myc-myc-hexahistidine tag (human, UniProt P40189 23-619)
# T4 construct: Monomeric; also called human GP130-MMH; hGP130-mmH
# Assay: Luminex, antigen captured on anti-myc beads
# Method: as §1, §2
row,Luminex MFI signal [MFI],Binder
1,17600,B1
2,17600,B2
3,16700,B3
4,13800,B4
5,17100,B5
6,15900,B6
7,15100,B7
8,19000,B8
9,18500,B9
10,16900,B10

# Biological target: T1, human gp130 extracellular domain …
# Assay: blocking ELISA, 2.5 nM hGP130-mFc on plate-bound CNTFR/CNTF complex
# Method: The experiment was carried out using the following procedure. Human CNTFRα was coated at a concentration of […] in HBSS on a 96-well microtiter plate overnight at 4° C. […] Human CNTF at a concentration of 1 μg/ml in HBSS was added to the plate bound CNTFRα for 1 hour at room temperature. In separate dilution plates, a constant amount of 2.5 nM of human GP130-mFc protein was titrated with antibodies ranging from 3.4 pM to 200 nM in serial dilution and with no antibody present. These solutions were incubated for 1 hour at room temperature (RT) and subsequently transferred to the microtiter plates with CNTFRα/CNTF complex without washing. The plates were incubated for 2 hours at RT, washed with PBST buffer, and plate-bound hGP130-mFc was detected with an anti-mFc polyclonal antibody conjugated with horseradish peroxidase (HRP) (Jackson ImmunoResearch Inc). Samples were developed with a TMB solution (BD Biosciences, substrate A and B mixed at 1:1 ratio as per manufacturer's instructions) to produce a colorimetric reaction and then neutralized with 1M sulfuric acid before measuring absorbance at 450 nm on a Victor X5 plate reader.
# Data analysis was performed using a sigmoidal dose-response model within Prism™ software (GraphPad). […] Percent blockade at maximum concentration tested was calculated as an indicator of the ability of the antibodies to block binding of GP130 to CNTFRα/CNTF on the plate as determined from the dose curve. The ratio of the reduction in signal observed in the presence of the highest tested concentration of 200 nM antibody, relative to the difference between the signal with 2.5 nM GP130 with no antibody (0% blocking) and the background signal from HRP-conjugated secondary antibody alone (100% blocking), was subtracted from 100% blocking.
IC50 [nM],Max Blocking of Antibody at 200 nM (%),Binder
1.1,94.8,B1
,-49.2,B2
,103,B3
,-3.39,B4
,-18.8,B5
,-24.7,B6
2.37,104,B7
2.37,86.7,B8
,-84.1,B9
,-38.9,B10
